Measurements reported in publication PMC11008599.

Columns and labels:
[1] = biological target: K8-K57, SNV-N frameworks (bovine (knob domain)); test: SPR; […], Biacore 8K+; […]; HBS-EP+ (10 mM HEPES pH 7.4, 150 mM NaCl, 3 mM EDTA, 0.005% P20); 1:1 binding model
[2] = biological target: aIL2_1-K8 (G4P linker), SNV-N frameworks (bovine (knob domain)); test: as above
[3] = biological target: K8-K57, BECN1 frameworks (bovine (knob domain)); test: SPR; multicycle kinetics, Biacore 8K+; knob domain constructs immobilised on a CM5 chip via amine coupling, C5 in solution; HBS-EP+ (10 mM HEPES pH 7.4, 150 mM NaCl, 3 mM EDTA, 0.005% P20); 1:1 binding model
[4] = biological target: aIL2_1-K8 (G4P linker), BECN1 frameworks (bovine (knob domain)); test: as above
[5] = biological target: aIL2_1-K8 (G4P linker), SNV-N frameworks (bovine (knob domain)); test: SPR; […], Biacore 8K+; […]; HBS-EP+; […]
[6] = biological target: aIL2_1-aIL2_1, SNV-N frameworks (bovine (knob domain)); test: SPR; […], Biacore 8K+; […]; HBS-EP+; […]
[7] = biological target: aIL2_1-aIL2_1-K8, SNV-N frameworks (bovine (knob domain)); test: SPR; […], Biacore 8K+; […]; HBS-EP+; […]
[8] = biological target: bispecific/bivalent aIL2_1-aIL2_1-K8 fusion, SNV-N stalks, GGGGP linkers; test: SPR; bridging SPR assay: immobilised C5, binding cycles of the knob domain fusions, then a binding cycle of IL-2
[9] = biological target: aIL2_1-K8 (G4P linker), BECN1 frameworks (bovine (knob domain)); test: SPR; multicycle kinetics, Biacore 8K+; knob domain constructs immobilised on a CM5 chip via amine coupling, IL-2 in solution; HBS-EP+; two-state binding model, only the fastest association and the slowest dissociation rate constants reported
[10] = biological target: aIL2_1-aIL2_1, BECN1 frameworks (bovine (knob domain)); test: as above
[11] = biological target: aIL2_1-aIL2_1-K8, BECN1 frameworks (bovine (knob domain)); test: as above
Chain of aIL2_1-aIL2_1-K8, BECN1 frameworks (bovine (knob domain)) (main, as listed by the source): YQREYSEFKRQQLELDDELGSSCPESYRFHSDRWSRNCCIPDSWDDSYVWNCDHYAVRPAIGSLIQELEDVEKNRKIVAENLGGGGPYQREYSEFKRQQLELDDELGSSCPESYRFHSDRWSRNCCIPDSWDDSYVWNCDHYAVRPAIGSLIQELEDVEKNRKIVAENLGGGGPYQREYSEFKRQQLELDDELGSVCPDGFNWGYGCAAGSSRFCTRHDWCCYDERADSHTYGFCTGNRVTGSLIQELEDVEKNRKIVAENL

Chain of aIL2_1-K8 (G4P linker), BECN1 frameworks (bovine (knob domain)) (main, as listed by the source): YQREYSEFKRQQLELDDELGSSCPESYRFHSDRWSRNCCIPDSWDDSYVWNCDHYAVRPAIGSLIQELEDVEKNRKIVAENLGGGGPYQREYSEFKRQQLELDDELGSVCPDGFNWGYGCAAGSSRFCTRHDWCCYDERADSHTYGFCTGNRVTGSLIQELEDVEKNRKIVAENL
Chain of human IL-2 (P60568 21-153): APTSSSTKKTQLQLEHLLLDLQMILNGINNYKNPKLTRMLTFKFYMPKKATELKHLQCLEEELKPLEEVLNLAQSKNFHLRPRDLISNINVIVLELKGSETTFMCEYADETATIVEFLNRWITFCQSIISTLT
Chain of aIL2_1-aIL2_1, BECN1 frameworks (bovine (knob domain)) (main, as listed by the source): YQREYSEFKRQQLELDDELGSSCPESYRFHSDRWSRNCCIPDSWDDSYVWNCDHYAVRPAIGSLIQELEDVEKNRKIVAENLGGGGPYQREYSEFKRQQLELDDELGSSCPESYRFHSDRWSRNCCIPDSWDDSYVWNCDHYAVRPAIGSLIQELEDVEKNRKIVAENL

Substance	Kd [1]	koff [1]	kon [1]	Kd [2]	koff [2]	kon [2]	Kd [3]	koff [3]	kon [3]	Kd [4]	koff [4]	kon [4]	Kd [5]	Kd [6]	Kd [7]	increase in signal upon IL-2 binding [8]	Kd [9]	Kd [10]	Kd [11]
complement component 5 (natural protein)	1.18 nM	1.83e-05 s⁻¹	15400 M⁻¹ s⁻¹	26 nM	0.00025 s⁻¹	9700 M⁻¹ s⁻¹	0.9 nM	2.8e-05 s⁻¹	31000 M⁻¹ s⁻¹	29 nM	0.00026 s⁻¹	8800 M⁻¹ s⁻¹							
human IL-2 (from UniProt P60568 21-153) (natural protein)													9 nM	5.7 nM	5.5 nM	26 RU	10 nM	7.5 nM	7.1 nM
